Measurements as given in patent publication US8697117B2, “Drug-eluting films” (Ramot at Tel-Aviv University Ltd., priority 2010, dated 2014).
Where “and” joins values, the source holds several entries; their conditions need not be identical. Equal values may be shown once.

Columns and labels:
Assay type in all cases: physicochemical
[1] = Morphological characterization of porous films by SEM (mean pore diameter, porosity)
Description: The morphology of the porous films (cryogenically fractured surfaces) was observed by scanning electron microscopy (SEM) using a JEOL JSM-6300 microscope at an accelerating voltage of 5 kV. The SEM samples were Au-sputtered prior to observation. The mean pore diameter (n=100 small pores or 50 large pores) and porosity of the observed morphologies were analyzed using the Sigma Scan Pro software, and statistics were calculated using SPSS 10 software. Statistical significance was determined based on ANOVA (Tukey-Kramer). The area occupied by the pores was calculated for each SEM fractograph using Sigma Scan Pro software in order to evaluate the porosity of the samples. Porosity was determined as the area occupied by the pores divided by the total area.

[2] = In vitro drug release from films in PBS at 37° C. (HPLC); conditions: for time at which the drug was almost fully released: antibiotic-loaded 50:50 PDLGA films, O:A 6:1, 2% drug
Description: Small films of 1.5 cm by 0.5 cm, were immersed in phosphate buffered saline (PBS) at 37° C. for 70 days in order to determine the various drug release kinetics therefrom in four repetitions. The release studies were conducted in closed glass tubes containing 3.0 ml PBS medium. The medium was removed completely at various time points, and at each sampling time fresh medium was introduced. The medium's drug concentration was determined using Jasco High Performance Liquid Chromatography (HPLC) with a UV 2075 plus detector and a reverse phase column kept at 25° C.

[3] = Encapsulation efficiency of the loaded agent in the films
[4] = In vitro HRP release from porous films in PBS at 37° C. (micro BCA)
Description: Small 1.5 cm by 2.0 cm films (four samples) were immersed in phosphate-buffered saline (PBS) at 37° C. for 28 days in order to determine the HRP release kinetics from these structures. The release studies were conducted in closed glass tubes containing 2.0 ml PBS medium. The medium was removed (completely) periodically, at each sampling time, and fresh medium was introduced. Sampling was carried out at 0.5, 1, 2, 3, 7, 14, 21 and 28 days.
The HRP concentration of each medium sample was determined using the micro BCA assay method, by measuring absorbance at 562 nm, using a SpectraMax 340 PC^384 plate reader spectrophotometer. Cumulative HRP release profiles were determined relative to the initial amount of HRP in the composite fibers (HRP released during the incubation period+the residue remaining in the fibers). Four repetitions were performed for each sample, and the results are presented as means±one standard deviation.

[5] = 5% w/v BSA film versus film with no surfactant, 28000 rpm
[6] = drug-loaded 50:50 PDLGA 17.5% w/v film, no surfactant, 28 000 rpm
[7] = drug-loaded film, BSA (5%), 28 000 rpm
[8] = drug-loaded film, BSA (5%), 28 000 rpm, listed as paclitaxel
[9] = drug-loaded film, BSA (1%), 14 000 rpm
[10] = drug-loaded film, BSA (1%), 28 000 rpm
[11] = drug-loaded film, no surfactant, 14 000 rpm
[12] = HRP film, reference formulation A (1.0% w/w HRP, 17.5% w/v, O:A 4:1, 50/50, 83 kDa)
[13] = as reference formulation A but 0.5% w/w HRP
[14] = as reference formulation A but 2.0% w/w HRP
[15] = as reference formulation A but 15% w/v polymer
[16] = as reference formulation A but 20% w/v polymer
[17] = as reference formulation A but 25% w/v polymer
[18] = as reference formulation A but 75/25 PDLGA
[19] = as reference formulation A but O:A 2:1
[20] = as reference formulation A but O:A 6:1
[21] = as reference formulation A but O:A 8:1
[22] = as reference formulation A but polymer initial MW 50 kDa
[23] = as reference formulation A but polymer initial MW 185 kDa

Sorbitan monooleate [Span 80]
Mean pore diameter ± SD ([1]; film from reference formulation B with 5% of the named surfactant, 28000 rpm for 120 seconds): 1.5 μm and 1.5 ± 0.4 μm

CC(=O)O[C@H]1C(=O)[C@@]2(C)[C@H]([C@H](OC(=O)c3ccccc3)[C@]3(O)C[C@H](OC(=O)[C@H](O)[C@@H](NC(=O)c4ccccc4)c4ccccc4)C(C)=C1C3(C)C)[C@]1(OC(C)=O)CO[C@@H]1C[C@@H]2O [Paclitaxel]
effect of BSA (fine nanostructure) on burst effect [2, 5]: did not significantly affect
effect of BSA (fine nanostructure) on release rate [2, 5]: only a slight increase
Mean pore diameter [1, 6]: 2.6 ± 0.8 μm
Porosity [1, 6]: 81.5 ± 3.8%
Mean pore diameter [1, 7]: 0.6 ± 0.1 μm
Porosity [1, 7]: 74.8 ± 3.2%
Mean pore diameter [1, 8]: 0.6 μm
Encapsulation efficiency [3, 6]: 52.8 ± 0.6%
Encapsulation efficiency ([3]; drug-loaded 50:50 PDLGA 17.5% w/v film, no surfactant, 28 000 rpm, listed as paclitaxel): 53%
Encapsulation efficiency [3, 7]: 35.6 ± 2.9%
Encapsulation efficiency [3, 8]: 35%

CC(C)(O/N=C(\C(=O)N[C@@H]1C(=O)N2C(C(=O)[O-])=C(C[n+]3ccccc3)CS[C@H]12)c1csc(N)n1)C(=O)O [Ceftazidime hydrate, ceftazidime hydrate]
time at which the drug was almost fully released [2]: ≤ 3 days
Mean pore diameter [1, 6]: 1.1 ± 0.4 μm
Porosity [1, 6]: 77.6 ± 2.2%
Mean pore diameter [1, 9]: 1.5 ± 0.5 μm
Porosity [1, 9]: 75.4 ± 0.5%
Mean pore diameter [1, 10]: 0.7 ± 0.2 μm
Porosity [1, 10]: 75.6 ± 0.5%
Mean pore diameter [1, 11]: 1.8 ± 0.7 μm
Porosity [1, 11]: 80.5 ± 3.0%
Encapsulation efficiency [3, 6]: 37.0 ± 1.9%
Encapsulation efficiency [3, 9]: 58.4 ± 2.3%
Encapsulation efficiency [3, 10]: 50.7 ± 0.5%
Encapsulation efficiency [3, 11]: 41.7 ± 1.6%

HRP: Horseradish peroxidase, 44 kDa; served as a surfactant and a protein-type biomolecule model
Mean large pore diameter [1, 12]: 17.1 ± 2.7 μm
Mean small pore diameter [1, 12]: 4.3 ± 0.8 μm
Porosity [1, 12]: 86.9 ± 2.6%
Mean large pore diameter [1, 13]: 16.0 ± 1.6 μm
Mean small pore diameter [1, 13]: 4.5 ± 1.3 μm
Porosity [1, 13]: 88.6 ± 1.4%
Mean large pore diameter [1, 14]: 16.0 ± 1.4 μm
Mean small pore diameter [1, 14]: 3.9 ± 0.4 μm
Porosity [1, 14]: 85.4 ± 2.2%
Mean small pore diameter [1, 15]: 5.5 μm and 5.5 ± 1.1 μm
Porosity [1, 15]: 88.2 ± 2.9%
Mean large pore diameter [1, 16]: 16.1 ± 2.3 μm
Mean small pore diameter [1, 16]: 3.2 ± 0.5 μm
Porosity [1, 16]: 85.8 ± 2.9%
Mean large pore diameter [1, 17]: 17.1 ± 1.9 μm
Mean small pore diameter [1, 17]: 1.5 μm and 1.5 ± 0.2 μm
Porosity [1, 17]: 82.2 ± 3.3%
Mean large pore diameter [1, 18]: 16.6 ± 3.6 μm
Mean small pore diameter [1, 18]: 5.9 ± 0.8 μm
Porosity [1, 18]: 89.2 ± 0.8%
Mean large pore diameter [1, 19]: 17.3 ± 3.3 μm
Mean small pore diameter [1, 19]: 4.7 μm and 4.7 ± 1.0 μm
Porosity [1, 19]: 92.5% and 92.5 ± 1.0%
Mean large pore diameter [1, 20]: 18.0 ± 3.8 μm
Mean small pore diameter [1, 20]: 3.0 ± 0.6 μm
Porosity [1, 20]: 82.1 ± 1.6%
Mean large pore diameter [1, 21]: 17.2 ± 2.1 μm
Mean small pore diameter [1, 21]: 2.3 μm and 2.3 ± 0.4 μm
Porosity [1, 21]: 76.7% and 76.7 ± 2.5%
Mean small pore diameter [1, 22]: 7.1 μm and 7.1 ± 1.4 μm
Porosity [1, 22]: 87.7 ± 2.0%
Mean large pore diameter [1, 23]: 16.4 ± 2.8 μm
Mean small pore diameter [1, 23]: 2.5 μm and 2.5 ± 0.6 μm
Porosity [1, 23]: 85.3 ± 1.2%
Encapsulation efficiency ([3]; HRP film, 0.5 w/w HRP): 89%
Encapsulation efficiency ([3]; HRP film, 1 w/w HRP, 17.5% w/v polymer (reference formulation A)): 87%
Encapsulation efficiency ([3]; HRP film, 2 w/w HRP): 86%
Encapsulation efficiency ([3]; HRP film, 15.5% w/v polymer): 90%
Encapsulation efficiency ([3]; HRP film, 25% w/v polymer): 85%
HRP burst release [4, 13]: 37%
HRP burst release ([4]; as reference formulation A but 2% w/w HRP): 74%
HRP burst release [4, 15]: 65%
HRP burst release [4, 17]: 47%
HRP burst release rate, 75/25 PDLGA compared to 50/50 PDLGA films [4, 18]: little difference in the burst release rates
HRP burst release [4, 19]: 58%
HRP burst release [4, 21]: 48%
HRP burst release [4, 22]: 73%
HRP burst release [4, 23]: 42%
HRP burst release ([4]; reference formulation A: 50/50 PDLGA 83 kDa, 17.5% w/v polymer, 1% w/w HRP, O:A 4:1): 57%

CC(=O)O.NCc1ccc(S(N)(=O)=O)cc1 [Mafenide acetate, 4-Aminomethylbenzenesulfonamide acetate salt]
time at which the drug was almost fully released [2]: 21 days
Mean pore diameter [1, 6]: 1.1 ± 0.3 μm
Porosity [1, 6]: 88.1 ± 1.2%
Mean pore diameter [1, 9]: 1.9 ± 0.5 μm
Porosity [1, 9]: 83.7 ± 2.4%
Mean pore diameter [1, 10]: 0.8 ± 0.2 μm
Porosity [1, 10]: 81.7 ± 2.5%
Mean pore diameter [1, 11]: 2.2 ± 0.9 μm
Porosity [1, 11]: 81.9 ± 2.6%
Encapsulation efficiency [3, 6]: 71.3 ± 0.5%
Encapsulation efficiency [3, 9]: 74.6 ± 4.2%
Encapsulation efficiency [3, 10]: 78.1 ± 2.1%
Encapsulation efficiency [3, 11]: 69.6 ± 1.0%
